Experimental data published in paper PMC4154877, “Mouse, but Not Human, ApoB-100 Lipoprotein Cholesterol Is a Potent Innate Inhibitor of Streptococcus pneumoniae Pneumolysin” (PLoS Pathogens, 2014).

B1: pre-pore locked pneumolysin with Cys-117, labelled with Alexa Fluor 488 or 568 (PLY^PPL D117C) (natural protein, Streptococcus pneumoniae, UniProt P0C2J9 1-471, looked up)
chain: MANKAVNDFILAMNYDKKKLLTHQCESIENRFIKEGNQLPDEFVVIERKKRSLSTNTSDISVTATNDSRLYPGALLVVDETLLENNPTLLAVDRAPMTYSIDLPGLASSDSFLQVECPSNSSVRGAVNDLLAKWHQDYGQVNNVPARMQYEKITAHSMCQLKVKFGSDFEKTGNSLDIDFNSVHSGEKQIQIVNFKQIYYTVSVDAVKNPGDVFQDTVTVEDLKQRGISAERPLVYISSVAYGRQVYLKLETTSKSDEVEAAFEALIKGVKVAPQTEWKQILDNTEVKAVILGGDPSSGARVVTGKVDMVEDLIQEGSRFTADHPGLPISYTTSFLRDNVVATFQNSTDYVETKVTAYRNGDLLLDHSGAYVAQYYITWNELSYDHQGKEVLTPKAWDRNGQDLTAHFTTSIPLKGNVRNLSVKIREATGLAWEWWRTVYEKTDLPLVRKRTISIWGTTLYPQVEDKVEND
modifications: Alexa Fluor 488 (donor) or Alexa Fluor 568 (acceptor) on the sulfhydryl of Cys-117; disulfide between cysteine-substituted Gly-25 and Glu-159
notes: Donor-labelled protein was mixed with acceptor-labelled or unlabelled (U) protein in the FRET assay; also called D labeled PLY^PPL; A labeled PLY^PPL; source: E. coli Tuner cells, purified
B2: pre-pore locked pneumolysin (PLY^PPL) (natural protein)
chain: MANKAVNDFILAMNYDKKKLLTHQCESIENRFIKEGNQLPDEFVVIERKKRSLSTNTSDISVTATNDSRLYPGALLVVDETLLENNPTLLAVDRAPMTYSIDLPGLASSDSFLQVEDPSNSSVRGAVNDLLAKWHQDYGQVNNVPARMQYEKITAHSMCQLKVKFGSDFEKTGNSLDIDFNSVHSGEKQIQIVNFKQIYYTVSVDAVKNPGDVFQDTVTVEDLKQRGISAERPLVYISSVAYGRQVYLKLETTSKSDEVEAAFEALIKGVKVAPQTEWKQILDNTEVKAVILGGDPSSGARVVTGKVDMVEDLIQEGSRFTADHPGLPISYTTSFLRDNVVATFQNSTDYVETKVTAYRNGDLLLDHSGAYVAQYYITWNELSYDHQGKEVLTPKAWDRNGQDLTAHFTTSIPLKGNVRNLSVKIREATGLAWEWWRTVYEKTDLPLVRKRTISIWGTTLYPQVEDKVEND
modifications: disulfide between cysteine-substituted Gly-25 and Glu-159
notes: pneumolysin (PLY) of Streptococcus pneumoniae, codon-optimised gene in pET-15b (NdeI/BamHI); cysteine-less background (Cys-428 to Ala) with a disulfide between Cys-25 and Cys-159; also called prepore locked version of PLY; source: E. coli Tuner cells, purified

Tests used:
[1] = biological target: the molecule itself; assay: FRET or BRET
[2] = biological target: the molecule itself; assay: SDS-agarose gel electrophoresis of SDS-resistant oligomer, immunoblot; PLY^PPL incubated with mouse or human serum diluted 1:2 to 1:40 in HEPES buffered saline, 37°C, 20 minutes; SDS-AGE (1.5%), blot probed with rabbit anti-PLY serum

Protein	binding result [1]	binding result [2]
B1	binds	
B2		binds
